Tests used:
Assay in all cases: cell-based or functional assay
[1] = biological target: HIV-1 Env of pseudovirus 1006_11_C3_1601 (HIV-1)
[2] = biological target: HIV-1 Env of pseudovirus 1056_10_TA11_1826 (HIV-1)
[3] = biological target: HIV-1 Env of pseudovirus 191084 B7-19 (HIV-1)
[4] = biological target: HIV-1 Env of pseudovirus 191821_E6_1 (HIV-1)
[5] = biological target: HIV-1 Env of pseudovirus 211-9 (HIV-1)
[6] = biological target: HIV-1 Env of pseudovirus 246F C1G (HIV-1)
[7] = biological target: HIV-1 Env of pseudovirus 249M B10 (HIV-1)
[8] = biological target: HIV-1 Env of pseudovirus 3301.v1.c24 (HIV-1)
[9] = biological target: HIV-1 Env of pseudovirus 6041.v3.c23 (HIV-1)
[10] = biological target: HIV-1 Env of pseudovirus 620345.c01 (HIV-1)
[11] = biological target: HIV-1 Env of pseudovirus 62357_14_D3_4589 (HIV-1)
[12] = biological target: HIV-1 Env of pseudovirus 6480.v4.c25 (HIV-1)
[13] = biological target: HIV-1 Env of pseudovirus 89-F1_2_25 (HIV-1)
[14] = biological target: HIV-1 Env of pseudovirus 928-28 (HIV-1)
[15] = biological target: HIV-1 Env of pseudovirus A07412M1.vrc12 (HIV-1)
[16] = biological target: HIV-1 Env of pseudovirus AC10.0.29 (HIV-1)
[17] = biological target: HIV-1 Env of pseudovirus BJOX010000.06.2 (HIV-1)
[18] = biological target: HIV-1 Env of pseudovirus C4118.c09 (HIV-1)
[19] = biological target: HIV-1 Env of pseudovirus CAAN5342.A2 (HIV-1)
[20] = biological target: HIV-1 Env of pseudovirus CAP45.2.00.G3 (HIV-1)
[21] = biological target: HIV-1 Env of pseudovirus CNE5 (HIV-1)
[22] = biological target: HIV-1 Env of pseudovirus CNE52 (HIV-1)
[23] = biological target: HIV-1 Env of pseudovirus CNE58 (HIV-1)
[24] = biological target: HIV-1 Env of pseudovirus Ce0393_C3 (HIV-1)
[25] = biological target: HIV-1 Env of pseudovirus Ce2010_F5 (HIV-1)
[26] = biological target: HIV-1 Env of pseudovirus Ce2060_G9 (HIV-1)
[27] = biological target: HIV-1 Env of pseudovirus Ce703010054_2A2 (HIV-1)
[28] = biological target: HIV-1 Env of pseudovirus Du156.12 (HIV-1)
[29] = biological target: HIV-1 Env of pseudovirus HIV-001428-2.42 (HIV-1)
[30] = biological target: HIV-1 Env of pseudovirus HIV-16055-2.3 (HIV-1)
[31] = biological target: HIV-1 Env of pseudovirus Q769.d22 (HIV-1)
[32] = biological target: HIV-1 Env of pseudovirus R2184.c04 (HIV-1)
[33] = biological target: HIV-1 Env of pseudovirus SC05_8C11_2344 (HIV-1)
[34] = biological target: HIV-1 Env of pseudovirus SC422661.8 (HIV-1)
[35] = biological target: HIV-1 Env of pseudovirus T250-4 (HIV-1)
[36] = biological target: HIV-1 Env of pseudovirus T255-34 (HIV-1)
[37] = biological target: HIV-1 Env of pseudovirus T257-31 (HIV-1)
[38] = biological target: HIV-1 Env of pseudovirus TRO.11 (HIV-1)
[39] = biological target: HIV-1 Env of pseudovirus X2088_c9 (HIV-1)
[40] = biological target: HIV-1 Env of pseudovirus ZM109F.PB4 (HIV-1)

354BG8 (antibody)
IC50 in TZM-bl assay [1]: 0.002 µg/mL
IC80 in TZM-bl assay [1]: 0.006 µg/mL
IC50 in TZM-bl assay [2]: 0.038 µg/mL
IC80 in TZM-bl assay [2]: 0.168 µg/mL
IC50 in TZM-bl assay [3]: 0.026 µg/mL
IC80 in TZM-bl assay [3]: 0.108 µg/mL
IC50 in TZM-bl assay [4]: > 10 µg/mL
IC80 in TZM-bl assay [4]: > 10 µg/mL
IC50 in TZM-bl assay [5]: 0.065 µg/mL
IC80 in TZM-bl assay [5]: 0.403 µg/mL
IC50 in TZM-bl assay [6]: 0.035 µg/mL
IC80 in TZM-bl assay [6]: 0.119 µg/mL
IC50 in TZM-bl assay [7]: > 10 µg/mL
IC80 in TZM-bl assay [7]: > 10 µg/mL
IC50 in TZM-bl assay [8]: 0.018 µg/mL
IC80 in TZM-bl assay [8]: 0.049 µg/mL
IC50 in TZM-bl assay [9]: > 10 µg/mL
IC80 in TZM-bl assay [9]: > 10 µg/mL
IC50 in TZM-bl assay [10]: > 10 µg/mL
IC80 in TZM-bl assay [10]: > 10 µg/mL
IC50 in TZM-bl assay [11]: > 10 µg/mL
IC80 in TZM-bl assay [11]: > 10 µg/mL
IC50 in TZM-bl assay [12]: 0.006 µg/mL
IC80 in TZM-bl assay [12]: 0.023 µg/mL
IC50 in TZM-bl assay [13]: > 10 µg/mL
IC80 in TZM-bl assay [13]: > 10 µg/mL
IC50 in TZM-bl assay [14]: 0.616 µg/mL
IC80 in TZM-bl assay [14]: 2.4 µg/mL
IC50 in TZM-bl assay [15]: 0.011 µg/mL
IC80 in TZM-bl assay [15]: 0.037 µg/mL
IC50 in TZM-bl assay [16]: 0.015 µg/mL
IC80 in TZM-bl assay [16]: 0.043 µg/mL
IC50 in TZM-bl assay [17]: > 10 µg/mL
IC80 in TZM-bl assay [17]: > 10 µg/mL
IC50 in TZM-bl assay [18]: > 10 µg/mL
IC80 in TZM-bl assay [18]: > 10 µg/mL
IC50 in TZM-bl assay [19]: 0.005 µg/mL
IC80 in TZM-bl assay [19]: 0.019 µg/mL
IC50 in TZM-bl assay [20]: > 10 µg/mL
IC80 in TZM-bl assay [20]: > 10 µg/mL
IC50 in TZM-bl assay [21]: > 10 µg/mL
IC80 in TZM-bl assay [21]: > 10 µg/mL
IC50 in TZM-bl assay [22]: 1.99 µg/mL
IC80 in TZM-bl assay [22]: 9.76 µg/mL
IC50 in TZM-bl assay [23]: 0.165 µg/mL
IC80 in TZM-bl assay [23]: 0.476 µg/mL
IC50 in TZM-bl assay [24]: > 10 µg/mL
IC80 in TZM-bl assay [24]: > 10 µg/mL
IC50 in TZM-bl assay [25]: > 10 µg/mL
IC80 in TZM-bl assay [25]: > 10 µg/mL
IC50 in TZM-bl assay [26]: > 10 µg/mL
IC80 in TZM-bl assay [26]: > 10 µg/mL
IC50 in TZM-bl assay [27]: > 10 µg/mL
IC80 in TZM-bl assay [27]: > 10 µg/mL
IC50 in TZM-bl assay [28]: 0.01 µg/mL
IC80 in TZM-bl assay [28]: 0.036 µg/mL
IC50 in TZM-bl assay [29]: 0.035 µg/mL
IC80 in TZM-bl assay [29]: 0.126 µg/mL
IC50 in TZM-bl assay [30]: > 10 µg/mL
IC80 in TZM-bl assay [30]: > 10 µg/mL
IC50 in TZM-bl assay [31]: > 10 µg/mL
IC80 in TZM-bl assay [31]: > 10 µg/mL
IC50 in TZM-bl assay [32]: > 10 µg/mL
IC80 in TZM-bl assay [32]: > 10 µg/mL
IC50 in TZM-bl assay [33]: 0.017 µg/mL
IC80 in TZM-bl assay [33]: 0.048 µg/mL
IC50 in TZM-bl assay [34]: 0.058 µg/mL
IC80 in TZM-bl assay [34]: 0.368 µg/mL
IC50 in TZM-bl assay [35]: 0.002 µg/mL
IC80 in TZM-bl assay [35]: 0.005 µg/mL
IC50 in TZM-bl assay [36]: > 10 µg/mL
IC80 in TZM-bl assay [36]: > 10 µg/mL
IC50 in TZM-bl assay [37]: > 10 µg/mL
IC80 in TZM-bl assay [37]: > 10 µg/mL
IC50 in TZM-bl assay [38]: 0.011 µg/mL
IC80 in TZM-bl assay [38]: 0.039 µg/mL
IC50 in TZM-bl assay [39]: 0.003 µg/mL
IC80 in TZM-bl assay [39]: 0.01 µg/mL
IC50 in TZM-bl assay [40]: > 10 µg/mL
IC80 in TZM-bl assay [40]: > 10 µg/mL

BG18 IgG (354BG18) (antibody)
IC80 in TZM-bl assay [1]: 0.004 µg/mL
IC50 in TZM-bl assay [2]: 0.007 µg/mL
IC80 in TZM-bl assay [2]: 0.045 µg/mL
IC50 in TZM-bl assay [3]: 0.011 µg/mL
IC80 in TZM-bl assay [3]: 0.043 µg/mL
IC50 in TZM-bl assay [4]: 14.1 µg/mL
IC80 in TZM-bl assay [4]: > 30 µg/mL
IC50 in TZM-bl assay [5]: 1.3 µg/mL
IC80 in TZM-bl assay [5]: 5.53 µg/mL
IC50 in TZM-bl assay [6]: 0.034 µg/mL
IC80 in TZM-bl assay [6]: 0.257 µg/mL
IC50 in TZM-bl assay [7]: > 30 µg/mL
IC80 in TZM-bl assay [7]: > 30 µg/mL
IC50 in TZM-bl assay [8]: 0.025 µg/mL
IC80 in TZM-bl assay [8]: 0.082 µg/mL
IC50 in TZM-bl assay [9]: > 30 µg/mL
IC80 in TZM-bl assay [9]: > 30 µg/mL
IC50 in TZM-bl assay [10]: > 30 µg/mL
IC80 in TZM-bl assay [10]: > 30 µg/mL
IC50 in TZM-bl assay [11]: 3.01 µg/mL
IC80 in TZM-bl assay [11]: > 30 µg/mL
IC50 in TZM-bl assay [12]: 0.016 µg/mL
IC80 in TZM-bl assay [12]: 0.116 µg/mL
IC50 in TZM-bl assay [13]: > 30 µg/mL
IC80 in TZM-bl assay [13]: > 30 µg/mL
IC50 in TZM-bl assay [14]: 0.761 µg/mL
IC80 in TZM-bl assay [14]: 3.93 µg/mL
IC50 in TZM-bl assay [15]: 0.081 µg/mL
IC80 in TZM-bl assay [15]: 1.72 µg/mL
IC80 in TZM-bl assay [16]: 0.003 µg/mL
IC50 in TZM-bl assay [17]: > 30 µg/mL
IC80 in TZM-bl assay [17]: > 30 µg/mL
IC50 in TZM-bl assay [18]: > 30 µg/mL
IC80 in TZM-bl assay [18]: > 30 µg/mL
IC50 in TZM-bl assay [19]: 0.008 µg/mL
IC80 in TZM-bl assay [19]: 0.04 µg/mL
IC50 in TZM-bl assay [20]: > 30 µg/mL
IC80 in TZM-bl assay [20]: > 30 µg/mL
IC50 in TZM-bl assay [21]: > 30 µg/mL
IC80 in TZM-bl assay [21]: > 30 µg/mL
IC50 in TZM-bl assay [22]: 0.012 µg/mL
IC80 in TZM-bl assay [22]: 0.045 µg/mL
IC50 in TZM-bl assay [23]: 0.024 µg/mL
IC80 in TZM-bl assay [23]: 0.073 µg/mL
IC50 in TZM-bl assay [24]: > 30 µg/mL
IC80 in TZM-bl assay [24]: > 30 µg/mL
IC50 in TZM-bl assay [25]: > 30 µg/mL
IC80 in TZM-bl assay [25]: > 30 µg/mL
IC50 in TZM-bl assay [26]: > 30 µg/mL
IC80 in TZM-bl assay [26]: > 30 µg/mL
IC50 in TZM-bl assay [27]: > 30 µg/mL
IC80 in TZM-bl assay [27]: > 30 µg/mL
IC50 in TZM-bl assay [28]: 0.003 µg/mL
IC80 in TZM-bl assay [28]: 0.01 µg/mL
IC50 in TZM-bl assay [29]: 0.004 µg/mL
IC80 in TZM-bl assay [29]: 0.021 µg/mL
IC50 in TZM-bl assay [30]: > 30 µg/mL
IC80 in TZM-bl assay [30]: > 30 µg/mL
IC50 in TZM-bl assay [31]: > 30 µg/mL
IC80 in TZM-bl assay [31]: > 30 µg/mL
IC50 in TZM-bl assay [32]: > 30 µg/mL
IC80 in TZM-bl assay [32]: > 30 µg/mL
IC50 in TZM-bl assay [33]: 0.003 µg/mL
IC80 in TZM-bl assay [33]: 0.016 µg/mL
IC50 in TZM-bl assay [34]: 0.005 µg/mL
IC80 in TZM-bl assay [34]: 0.021 µg/mL
IC80 in TZM-bl assay [35]: 0.006 µg/mL
IC50 in TZM-bl assay [36]: > 30 µg/mL
IC80 in TZM-bl assay [36]: > 30 µg/mL
IC50 in TZM-bl assay [37]: > 30 µg/mL
IC80 in TZM-bl assay [37]: > 30 µg/mL
IC80 in TZM-bl assay [38]: 0.002 µg/mL
IC50 in TZM-bl assay [39]: 0.004 µg/mL
IC80 in TZM-bl assay [39]: 0.009 µg/mL
IC50 in TZM-bl assay [40]: > 30 µg/mL
IC80 in TZM-bl assay [40]: > 30 µg/mL
